Patent US10590168B2, “Substrates for FLT3 kinase and uses thereof” (REGENTS OF THE UNIVERSITY OF MINNESOTA, priority 2016, dated 2020)

Biological target: T1, FLT3 (Homo sapiens, UniProt P36888)
T1 sequence (P36888 27-993): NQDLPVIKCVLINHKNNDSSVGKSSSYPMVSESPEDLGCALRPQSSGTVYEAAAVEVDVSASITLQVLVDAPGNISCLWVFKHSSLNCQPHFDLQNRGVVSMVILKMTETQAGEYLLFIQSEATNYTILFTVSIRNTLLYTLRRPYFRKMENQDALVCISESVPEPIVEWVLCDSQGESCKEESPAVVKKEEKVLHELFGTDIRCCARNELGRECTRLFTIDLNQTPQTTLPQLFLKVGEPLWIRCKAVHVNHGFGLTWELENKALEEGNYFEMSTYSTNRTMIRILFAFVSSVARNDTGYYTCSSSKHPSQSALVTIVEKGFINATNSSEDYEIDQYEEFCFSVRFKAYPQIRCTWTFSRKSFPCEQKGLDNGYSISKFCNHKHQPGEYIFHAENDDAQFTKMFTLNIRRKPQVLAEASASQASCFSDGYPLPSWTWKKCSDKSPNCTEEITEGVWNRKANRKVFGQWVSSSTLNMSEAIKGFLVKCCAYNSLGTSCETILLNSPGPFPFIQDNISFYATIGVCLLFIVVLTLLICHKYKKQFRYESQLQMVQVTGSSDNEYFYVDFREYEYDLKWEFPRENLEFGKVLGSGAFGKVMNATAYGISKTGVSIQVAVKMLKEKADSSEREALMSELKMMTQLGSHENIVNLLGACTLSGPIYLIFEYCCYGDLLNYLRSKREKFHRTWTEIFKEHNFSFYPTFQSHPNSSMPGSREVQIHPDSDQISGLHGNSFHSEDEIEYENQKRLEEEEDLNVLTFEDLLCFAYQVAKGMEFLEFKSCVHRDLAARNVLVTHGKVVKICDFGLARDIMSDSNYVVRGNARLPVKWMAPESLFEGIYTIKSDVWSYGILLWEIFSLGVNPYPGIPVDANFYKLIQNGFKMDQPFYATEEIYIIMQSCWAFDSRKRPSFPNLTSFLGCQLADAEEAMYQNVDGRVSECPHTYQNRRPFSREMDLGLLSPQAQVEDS
Test: Phosphorylation of existing peptide substrate by FLT3
Assay type: biochemical
Details: in the applicant's experience

FTDRLQQYISTR [Flt3tide, previously reported Flt3 substrate peptide (Böhmer & Uecker 2009)]
phosphorylation by FLT3: poorly phosphorylated
